Laboratory results from PMC11138481 (Molecular cell, 2023).
Ends that are not written are not given here. * marks the point of attachment. Crotonyl(E) = C/C=C/C(=O)*

What was measured:
[1] = target: GFP-GAS41 H43S protein (recombinant) (human, UniProt O95619 1-227, H43S); assay: MST
[2] = target: GAS41 YEATS domain (residues 11–150) (human, UniProt O95619 11-150); assay: ITC
Sequence of GAS41 YEATS domain (residues 11–150) (O95619 11-150): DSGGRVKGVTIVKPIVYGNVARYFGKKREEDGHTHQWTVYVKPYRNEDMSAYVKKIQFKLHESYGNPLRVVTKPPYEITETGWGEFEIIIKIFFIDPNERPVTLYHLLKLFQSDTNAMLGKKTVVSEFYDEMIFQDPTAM

Sequence of GFP-GAS41 H43S protein (recombinant) (O95619 whole entry H43S, the tested form may be a part): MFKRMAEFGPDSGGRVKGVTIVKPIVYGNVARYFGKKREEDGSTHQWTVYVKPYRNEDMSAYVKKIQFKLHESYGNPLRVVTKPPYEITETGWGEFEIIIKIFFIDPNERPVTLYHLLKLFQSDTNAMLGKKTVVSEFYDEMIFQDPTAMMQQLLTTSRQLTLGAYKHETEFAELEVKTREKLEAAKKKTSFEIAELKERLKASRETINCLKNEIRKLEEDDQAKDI

Row | fold reduction in binding against GAS41 wt [1] [fold] | Kd [2] [µM] | Binder
1 | 6 | 22.9 | ATKAARK(Crotonyl(E))SAPATG [Synthesized H3 K27cr (a.a. 21-33) peptide]
2 | ~2 | 51.5 | ATKAARK(Ac)SAPATG [Synthesized H3 K27ac (a.a. 21-33) peptide]
